Results published in PMC6529012.

Experiments:
[1] = molecular target: human foreskin fibroblast fibronectin (human)
[2] = molecular target: human foreskin fibroblast fibronectin (human); remark: listed apart in the source

Chain of human foreskin fibroblast fibronectin (human) (P02751 32-2477): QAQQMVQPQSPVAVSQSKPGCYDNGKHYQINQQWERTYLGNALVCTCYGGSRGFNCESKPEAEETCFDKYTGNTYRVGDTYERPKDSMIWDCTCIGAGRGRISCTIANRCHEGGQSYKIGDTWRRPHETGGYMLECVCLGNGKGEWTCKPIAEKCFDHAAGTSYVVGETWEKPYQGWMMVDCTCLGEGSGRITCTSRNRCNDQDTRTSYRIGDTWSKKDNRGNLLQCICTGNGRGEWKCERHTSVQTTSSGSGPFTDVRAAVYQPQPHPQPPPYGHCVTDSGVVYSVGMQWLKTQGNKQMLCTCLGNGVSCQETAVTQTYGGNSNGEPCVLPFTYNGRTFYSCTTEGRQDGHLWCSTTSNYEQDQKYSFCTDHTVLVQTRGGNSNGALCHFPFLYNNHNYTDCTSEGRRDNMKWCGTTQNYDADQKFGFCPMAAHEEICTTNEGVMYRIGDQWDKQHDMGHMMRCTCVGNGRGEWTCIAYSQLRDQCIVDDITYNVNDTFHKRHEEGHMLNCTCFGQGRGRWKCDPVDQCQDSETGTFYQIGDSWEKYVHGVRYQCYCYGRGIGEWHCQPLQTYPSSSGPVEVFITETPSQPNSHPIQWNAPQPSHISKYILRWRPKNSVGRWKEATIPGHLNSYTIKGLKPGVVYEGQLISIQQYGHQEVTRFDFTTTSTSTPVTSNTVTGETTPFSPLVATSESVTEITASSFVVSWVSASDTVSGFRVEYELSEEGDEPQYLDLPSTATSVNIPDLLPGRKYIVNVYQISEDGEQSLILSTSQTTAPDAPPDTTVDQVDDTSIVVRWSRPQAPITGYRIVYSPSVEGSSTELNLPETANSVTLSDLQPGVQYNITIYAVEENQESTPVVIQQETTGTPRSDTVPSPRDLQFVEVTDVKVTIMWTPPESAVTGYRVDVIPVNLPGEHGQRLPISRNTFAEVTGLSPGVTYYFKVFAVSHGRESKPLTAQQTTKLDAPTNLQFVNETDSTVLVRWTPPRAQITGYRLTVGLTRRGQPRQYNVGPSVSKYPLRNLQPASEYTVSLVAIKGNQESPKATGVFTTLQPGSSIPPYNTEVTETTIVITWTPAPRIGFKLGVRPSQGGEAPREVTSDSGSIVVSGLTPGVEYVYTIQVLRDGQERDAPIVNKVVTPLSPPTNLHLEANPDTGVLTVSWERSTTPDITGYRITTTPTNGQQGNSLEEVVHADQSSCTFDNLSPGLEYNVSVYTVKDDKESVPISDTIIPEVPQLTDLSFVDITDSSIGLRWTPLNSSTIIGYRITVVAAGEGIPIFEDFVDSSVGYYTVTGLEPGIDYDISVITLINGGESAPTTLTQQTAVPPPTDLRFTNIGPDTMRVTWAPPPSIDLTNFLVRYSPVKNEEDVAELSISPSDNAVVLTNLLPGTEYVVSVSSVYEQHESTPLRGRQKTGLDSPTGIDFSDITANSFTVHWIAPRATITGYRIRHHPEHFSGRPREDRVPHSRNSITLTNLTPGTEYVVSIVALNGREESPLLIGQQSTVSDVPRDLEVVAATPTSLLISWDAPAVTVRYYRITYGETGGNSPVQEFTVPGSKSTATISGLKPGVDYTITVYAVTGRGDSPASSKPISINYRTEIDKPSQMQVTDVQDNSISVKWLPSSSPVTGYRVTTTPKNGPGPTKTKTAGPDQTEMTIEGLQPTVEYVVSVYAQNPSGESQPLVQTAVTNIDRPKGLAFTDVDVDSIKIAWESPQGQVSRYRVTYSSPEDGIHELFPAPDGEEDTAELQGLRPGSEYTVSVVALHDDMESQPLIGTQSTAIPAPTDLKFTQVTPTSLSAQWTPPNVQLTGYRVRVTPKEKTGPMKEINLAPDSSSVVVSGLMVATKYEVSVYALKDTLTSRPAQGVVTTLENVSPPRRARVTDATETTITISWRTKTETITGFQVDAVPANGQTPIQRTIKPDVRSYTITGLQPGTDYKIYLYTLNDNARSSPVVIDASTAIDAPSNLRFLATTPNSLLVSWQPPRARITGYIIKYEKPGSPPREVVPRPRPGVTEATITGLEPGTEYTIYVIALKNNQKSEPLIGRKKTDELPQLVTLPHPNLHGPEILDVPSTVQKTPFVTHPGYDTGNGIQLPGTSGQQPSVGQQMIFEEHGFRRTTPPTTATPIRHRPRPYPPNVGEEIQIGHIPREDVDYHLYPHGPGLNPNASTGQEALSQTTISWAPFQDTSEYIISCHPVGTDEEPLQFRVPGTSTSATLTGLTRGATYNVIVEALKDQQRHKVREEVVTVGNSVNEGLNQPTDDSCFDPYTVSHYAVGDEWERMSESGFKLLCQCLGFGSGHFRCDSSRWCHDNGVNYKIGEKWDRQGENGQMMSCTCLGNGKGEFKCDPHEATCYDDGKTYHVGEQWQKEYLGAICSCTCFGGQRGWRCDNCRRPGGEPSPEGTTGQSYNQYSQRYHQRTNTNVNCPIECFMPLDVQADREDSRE

Binder	reduction by FnbA-2 peptide (10 ug/well, preincubated with the monolayer) of adherence of radiolabelled B314 expressing Tp0136 to C6 (rat) glioma cells [1] [%]	reduction by FnbA-2 peptide (10 ug/well, preincubated with the monolayer) of adherence of radiolabelled B314 expressing Tp0136 to HEK293 cells [1] [%]	average percent binding of radiolabelled B314 expressing Tp0136 to Vero cells [2] [%]
Tp0136 of Treponema pallidum subsp. pallidum SS14 strain, expressed on the surface of B. burgdorferi B314 (natural protein) CDFTGIFAAIQSEVPIKTPSIPGAIYGLVKAGSKLYATNGRLWEKELNGTGSWQKVSSSSVPTDSDKKVMSIATDGNTFVLACVPGTGVYKHCVNGAGSSSTGTTASPSTETCSQHATLVGGTSKPFWLVPGGTGNNGNCGCGGGGGGSSSSSSSCIHIWLVPGGTGNNGNCGCGGGGGGSSSSSSSCIHIKVENTDEQFLDMGEGYVVTTKHLYTKNGSSSAGPAQCPGGGGGGGSSGGGGSSEYTKASCSFSTPILASVSDGCYHYILTKEKVYCRKQDTASSAASSPAQCPSSPSSSSSSSTNAGCEVAHGVDDPLCLAIFKHNGCEYLLIGGSRGYGEIKLEANSSGTNGTCMRLKESNVHKSPGQWGESSPTPKASAEQYRGTVGRFAVQKIYVVEKNGGGNGVAAGGAGCPANASSSSGGTSSTQRPDLYAAVGESSDTYTGLWKFDTTTCSWNRE	25.3	18.8	6
Tp0136 of Treponema pallidum subsp. pallidum Nichols (Seattle-Nichols) strain, expressed on the surface of B. burgdorferi B314 (natural protein) CDFTGIFAAIQSEVPIKTPSIPGAIYGLVKAGSKLYATNGRLWEKELNGTGSWQKVSSSSVPTDSDKKVMSIATDGNTFVLACVPGTGVYKHCVNGAGSSSTGTTASPSTETCSQHATLVGGTSKPFWLVPGGTGNNGNCGCGGGGGGSSSSSSSCIHIWLVPGGTGNNGNCGCGGGGGGSSSSSSSCIHIKVENTDEQFLDMGEGYVVTTKHLYTKNGSSSAGPAQCPGGGGGGGSSGGGGSSEYTKASCSFSTPILASVSDGCYHYILTKEKVYCRKQDTASSAASSPAQCPSSPSSSSSSSTNAGCEVAHGVDDPLCLAIFKHNGCEYLLIGGSRGYGEIKLEANSSGTNGTCMRLKESNVHKSPGQWGESSPTPKASAEQYRGTVGRFAVQKIYVVEKNGGGNGVAAGGAGCPANASSSSGGTSSTQRPDLYAAVGESSDTYTGLWKFDTTTCSWNRE	27.7	26.3	8
